Experimental data: paper PMC7335187 (2020)

B1: Atg40^234–252 peptide [S. cerevisiae] / Atg8 (1-116) K26P [S. cerevisiae] (parent complex)
chain 1: TSTEFPNDYDFMEDILDET
chain 2: MKSTFKSEYPFEKRKAESERIADRFPNRIPVICEKAEKSDIPEIDKRKYLVPADLTVGQFVYVIRKRIMLPPEKAIFIFVNDTLPPTAALMSAIYQEHKDKDGFLYVTYSGENTFG

Variants of: B1
Assay: ITC
chain 1 TSTEAPNDYDFMEDILDET was tested, and the Kd was 4.31 µM.
chain 1 TSTEFPNDADFMEDILDET was tested, and the Kd was 32.7 µM.

Variants of: B1
Assay: ITC
Remark: another data set of the same source
chain 2 MKSTFKSEYPFEKRKAESERIADRFPNRIPVICEKAEKSDIPEIDKRKYLVPADLTVGQFVYVIRKAIMLPPEKAIFIFVNDTLPPTAALMSAIYQEHKDKDGFLYVTYSGENTFG was tested, and the Kd was 24.8 µM.
